This experiment addresses FLAG-GLUT4 (GLUT4 tagged at the N and C termini with FLAG and His9, tags not cleaved) (UniProt P19357). In words: SDS-PAGE and Western blot; anti-FLAG immunoblot of purified FLAG-GLUT4 before and after TEV protease cleavage (0, 3 and 24 h) in LMNG detergent micelles or in 70% egg PC, 15% POPA, 15% POPE liposomes.

The stoichiometry N is the number of molecules, sites or subunits per partner or assembly. As for “FLAG-GLUT4 (GLUT4 tagged at the N and C termini with FLAG and His9, tags not cleaved) (from UniProt P19357 1-509) (natural protein)”, the stoichiometry N worked out at 2.

For the origin of these results see publication PMC5016126.
